Tested on: PmeI restriction endonuclease (Pseudomonas mendocina)
Experiment: cleavage_in_vitro
Details: column fractions assayed on lambda DNA

bacteriophage lambda DNA
activity (units (total purified)): 116000

From patent publication US5945288
